Here are results for three molecules from patent publication US20020146750A1 (published 2002).

Where a chain is given by its changes, count along the chain named.

The chains are these.
B1: 7D1 (Fab, V domains shown)
VH: QVQLVQSGGGLVQPGGSLRLSCAASGFTFRSNAMGWVRQAPGKGLEWVSGISGSGGSTYYADSVKGRFTISRDNSKNTLYLQMNSLRAEDTAVYYCAKHTGGGVWDPIKHWGQGTLVTVSS
VL: EIVLTQSPLSLPVTPGEPASISCRSSQSLLHSNGYTYLDWYLQKPGQSPQLLIYSGSHRASGVPDRFSGSVSGTDFTLRISRVEAEDVGVYYCMQGLQSPFTFGPGTKVDIKR
notes: PH1 Fab variant; also called clone 7D1
B2: 7F9 (Fab, V domains shown)
VH: B1 VH with K109G, H110Y
VL: B1 VL
notes: PH1 Fab variant; also called clone 7F9
B3: 7F3 (Fab, V domains shown)
VH: B1 VH with K98I, H110Y
VL: B1 VL
notes: PH1 Fab variant; also called clone 7F3

The target in the assay is T1, MUC1 (mucin-1) on MUC1-expressing cells (human, UniProt P15941 24-1255, underglycosylated / partially glycosylated tumor-associated glycoforms).
T1 construct: whole, on cells; also called cellular MUC1; tumor-associated MUC1
T1 sequence (P15941 24-1255): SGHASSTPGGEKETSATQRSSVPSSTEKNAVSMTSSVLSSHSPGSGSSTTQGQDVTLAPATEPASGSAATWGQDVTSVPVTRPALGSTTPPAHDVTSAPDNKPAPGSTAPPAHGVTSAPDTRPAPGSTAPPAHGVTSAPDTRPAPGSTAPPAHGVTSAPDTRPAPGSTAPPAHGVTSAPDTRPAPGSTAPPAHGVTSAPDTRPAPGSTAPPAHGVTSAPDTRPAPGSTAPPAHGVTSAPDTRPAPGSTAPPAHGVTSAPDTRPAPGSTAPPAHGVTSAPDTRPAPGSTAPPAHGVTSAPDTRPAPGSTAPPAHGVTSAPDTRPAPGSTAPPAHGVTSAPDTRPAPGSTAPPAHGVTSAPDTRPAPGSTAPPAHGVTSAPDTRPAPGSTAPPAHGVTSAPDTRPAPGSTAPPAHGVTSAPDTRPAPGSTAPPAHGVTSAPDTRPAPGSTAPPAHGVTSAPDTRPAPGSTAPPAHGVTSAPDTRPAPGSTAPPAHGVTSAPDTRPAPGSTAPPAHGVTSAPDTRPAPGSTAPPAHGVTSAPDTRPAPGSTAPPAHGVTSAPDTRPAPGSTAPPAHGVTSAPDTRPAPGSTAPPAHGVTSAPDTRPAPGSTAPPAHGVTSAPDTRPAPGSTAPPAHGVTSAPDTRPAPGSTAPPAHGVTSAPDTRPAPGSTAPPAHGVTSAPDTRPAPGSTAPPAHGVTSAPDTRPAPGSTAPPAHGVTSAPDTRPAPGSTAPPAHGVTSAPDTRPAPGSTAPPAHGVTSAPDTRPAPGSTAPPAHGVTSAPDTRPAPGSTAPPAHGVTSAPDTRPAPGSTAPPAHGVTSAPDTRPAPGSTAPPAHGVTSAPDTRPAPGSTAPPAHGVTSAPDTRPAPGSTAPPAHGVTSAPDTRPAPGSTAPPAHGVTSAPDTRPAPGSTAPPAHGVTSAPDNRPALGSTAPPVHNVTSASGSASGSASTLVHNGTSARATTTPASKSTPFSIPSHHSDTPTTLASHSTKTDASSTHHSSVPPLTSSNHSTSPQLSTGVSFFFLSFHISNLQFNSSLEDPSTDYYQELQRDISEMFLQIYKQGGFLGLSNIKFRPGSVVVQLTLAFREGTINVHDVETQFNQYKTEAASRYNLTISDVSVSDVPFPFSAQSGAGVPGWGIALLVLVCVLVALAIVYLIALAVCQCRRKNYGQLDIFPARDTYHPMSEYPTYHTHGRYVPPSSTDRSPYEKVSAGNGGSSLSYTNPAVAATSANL
The assay can be described thus: flow cytometry, purified Fab dilutions on cellular MUC1 (ETA cells); data not shown. The protocol: Specific binding of the Fabs was measured by FACScalibur analysis (Becton Dickinson, Oxnard, Calif.) as described by Henderikx et al. (Cancer Res., 58: 4324-4332 (1998)). For affinity studies on cells with recombinant Fabs, the following flow cytometry experiment was carried out. Fab fragments were purified from the periplasmic fraction by IMAC and gel filtration as described in (Roovers et al., Br. J. Cancer, 78: 1407-1416 (1998)). Protein concentrations were measured with the bicinchoninic acid method (Sigma, St. Louis, Mo., USA). Two-fold serial dilutions of these Fabs were made and incubated, for each dilution point, with 2×10⁵/100 μl ETA cells (transfected 3T3 cells (Acres et al., J. Immunol., 14: 136-1443 (1993)). After trypsinisation, cells were washed one time in RPMI 10% FCS, 0.1% NaN₃ (incubation buffer). Then, cells were incubated with appropriate dilution for 1 hour at room temperature (RT), on a rotator. As negative controls, 2×10⁵ 3T3 mouse fibroblast cells were also incubated with the highest concentrations of antibodies. As a secondary negative control, ETA cells without primary antibody were used. Cells were spun down by centrifugation for 3 minutes at 611×g. Between incubations, cells were washed with incubation buffer. In a second incubation, anti-Myc antibody (6 μg/ml 9E10), directed against the Myc-tagged Fabs, was added for 30 minutes in incubation buffer at RT. After washing once, rabbit anti-mouse-FITC was used at RT for 30 minutes (Dako). Detection of bound antibodies was performed by means of flow cytometry on a FACSCalibur (Becton Dickinson, Oxnard), and results analyzed with the CELLQuest program (Becton Dickinson). Mean intensity was plotted against the concentration of the antibodies.
The relative ranking of the three clones from highest to lowest affinity (i.e., 7D1>7F3>7F9) appear to have stayed the same, but the positioning of both the wild type clone PH1 and best BIAcore mutant 5C8 appearef to be different from what was expected on the basis of the BIAcore affinity.
For orientation: In flow cytometry, cells or beads pass a laser one at a time.
Take B1: the binding result is reported as “binds”. As to B2, the binding result was “binds”.

For the molecule B3, the binding result is recorded as “binds”.
